Experimental data published in the supplement of paper PMC10724198.
± gives the standard deviation of the averaged measurements.

Each sequence was assayed on Saccharomyces cerevisiae (assay: protein stability index of tFT-peptide fusion (C-terminal peptide) (PSI (0-1 scale)); higher = more stable (slower turnover)). Settings: genetic background: wild type; temperature: 30 C.
Experimental: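 Multiplexed protein stability (MPS) profiling in S. cerevisiae. Random 12-aa peptides (tFT-X12 library) are fused to the C-terminus of a sfGFP-mCherry tandem fluorescent timer, after mCherry and a GGGS linker. Cells are FACS-sorted into 8 mCherry/sfGFP bins and deep-sequenced. The protein stability index (PSI) is the read-weighted bin average, scaled from 0 (unstable) to 1 (stable). Only peptides with >10 reads are reported; cells were grown at 30 °C in SC-His with glucose.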
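Further: PSI is a weighted mean of sequencing reads over stability bins, variants kept only with over 10 reads, mCherry proximal and sfGFP distal, peptide attached via GGGS linker.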

| Sequence | protein stability index |
| --- | --- |
| AADSKERPPRPP | 0.625 ± 0.0092 |
| AAGEGSAPTRDR | 0.672 ± 0.028 |
| AAGPILAFSVAC | 0.638 ± 0.039 |
| AAGSVFAEGYTG | 0.686 ± 0.042 |
| AAHSQNPPPPSS | 0.697 ± 0.031 |
| AAIARRNIFKAR | 0.689 ± 0.039 |
| AALSTYPLVTCS | 0.547 ± 0.012 |
| AARYSRSPRTCF | 0.6507 ± 0.0059 |
| AASVYAFLPGLY | 0.651 ± 0.021 |
| AATGPPHPPSPP | 0.804 ± 0.037 |
| AAVRPAHRICYS | 0.733 ± 0.041 |
| AAWGSGMCLCVF | 0.559 ± 0.046 |
| AAWSITFEVLSI | 0.59 ± 0.026 |
| ACARIGRDYVTP | 0.687 ± 0.016 |
| ACKWGVNKSTLG | 0.703 ± 0.043 |
| ACLLYSGFSTEL | 0.654 ± 0.0066 |
| ACLPRARLRFHV | 0.669 ± 0.027 |
| ACRSGTRFAGIW | 0.703 ± 0.016 |
| ACRTGSSLLHPI | 0.706 ± 0.06 |
| ACSLGQSVLVCR | 0.611 ± 0.02 |
| ACSSGGVGWGSV | 0.66 ± 0.034 |
| ACWGFFIAGVRV | 0.598 ± 0.056 |
| ADEGRGVGGVGG | 0.699 ± 0.061 |
| ADGGVVLKVMEG | 0.636 ± 0.077 |
| ADRSVGSAACSP | 0.72 ± 0.15 |
| ADWGLLVNRSHH | 0.725 ± 0.084 |

| Sequence | protein stability index |
| --- | --- |
| ADYSRHSCSSSP | 0.681 ± 0.053 |
| AEESPVDKRPKS | 0.728 ± 0.036 |
| AENHCIASRIGH | 0.659 ± 0.019 |
| AETPRGDTRLHE | 0.699 ± 0.021 |
| AFAWERPCEIRF | 0.6984 ± 0.0063 |
| AFCKTGSAGVGI | 0.634 ± 0.046 |
| AFGCGGVPGDFA | 0.63 ± 0.015 |
| AFLLPYTSLLLT | 0.516 ± 0.026 |
| AFLLSSIRPSLR | 0.7486 ± 0.005 |
| AFPAQSLRLRCE | 0.688 ± 0.049 |
| AFRSISERLGGS | 0.784 ± 0.018 |
| AFRVPGSCAFSP | 0.641 ± 0.011 |
| AFSTGSIILEPR | 0.646 ± 0.016 |
| AFYLYLSSTSRF | 0.662 ± 0.0086 |
| AGAGGGGAVVVG | 0.637 ± 0.039 |
| AGCRRGLGMETQ | 0.648 ± 0.012 |
| AGCVAVYGVFLG | 0.619 ± 0.13 |
| AGCVVGWGAWVL | 0.7035 ± 0.0064 |
| AGDTCRLRIHVD | 0.728 ± 0.021 |
| AGEGLIRMIVRP | 0.694 ± 0.024 |
| AGGARADKQGGG | 0.636 ± 0.071 |
| AGGGRGAEGCGG | 0.783 ± 0.069 |
| AGGGVKLWWGRE | 0.657 ± 0.054 |
| AGGPARWCLEVG | 0.7 ± 0.015 |
| AGGRSVCGSALP | 0.661 ± 0.016 |
| AGGWLRGGLGVG | 0.7 ± 0.053 |

| Sequence | protein stability index |
| --- | --- |
| AGIFGGGRGVSV | 0.647 ± 0.039 |
| AGIGWGDLASPG | 0.681 ± 0.025 |
| AGKVCGVGRLSI | 0.65 ± 0.033 |
| AGLEPGTAALVD | 0.641 ± 0.094 |
| AGLGLGRVNVMP | 0.743 ± 0.03 |
| AGLSGRGFLRGA | 0.6923 ± 0.0062 |
| AGMATWGILVSL | 0.52 ± 0.008 |
| AGPGGAPVRWCR | 0.723 ± 0.037 |
| AGPKYHLGIPAP | 0.678 ± 0.014 |
| AGPPSPPLHPVG | 0.696 ± 0.026 |
| AGREREVLFNLH | 0.679 ± 0.067 |
| AGRFAPAEARVF | 0.622 ± 0.056 |
| AGRVGVRGVVGG | 0.748 ± 0.1 |
| AGRVRERMRVYG | 0.639 ± 0.01 |
| AGSFGCREAVCP | 0.658 ± 0.044 |
| AGSSQWSLGQLG | 0.6345 ± 0.002 |
| AGVGGCVGLGCR | 0.653 ± 0.042 |
| AHPGHRPSHPPY | 0.727 ± 0.08 |
| AHPPLLPPLLPS | 0.639 ± 0.015 |
| AHPPSPPPTRRP | 0.676 ± 0.0079 |
| AHSAPGHPHDFP | 0.664 ± 0.046 |
| AIALASTNLMAG | 0.713 ± 0.097 |
| AIGDLQKAVPLM | 0.718 ± 0.047 |
| AILHFTVSPRVY | 0.561 ± 0.0097 |
| AIRRNVYSCVYG | 0.603 ± 0.032 |
| AIYDSFRISYRT | 0.675 ± 0.028 |

| Sequence | protein stability index |
| --- | --- |
| AIYKGVIVGKKS | 0.646 ± 0.043 |
| AKRFQTTWAGRM | 0.61 ± 0.037 |
| AKSGEVIGSWFG | 0.67127 ± 0.00043 |
| ALCHASSLHLQS | 0.724 ± 0.059 |
| ALGNFPLGASVS | 0.676 ± 0.035 |
| ALGRTPYSGCFL | 0.631 ± 0.021 |
| ALKLVGSVWFGG | 0.676 ± 0.15 |
| ALLAFMSSPRRL | 0.7001 ± 0.0028 |
| ALLPPRPPSPLP | 0.692 ± 0.016 |
| ALRLLRHTLSSS | 0.703 ± 0.016 |
| ALRPYDVQVKFR | 0.622 ± 0.038 |
| ALRVHVPPYVPA | 0.6785 ± 0.0049 |
| ALSPPSPTPASA | 0.694 ± 0.049 |
| ALSPSLWCYFPT | 0.71 ± 0.029 |
| ALSTALVIPLLY | 0.58818 ± 0.00035 |
| ALSVASVAVVPL | 0.56 ± 0.015 |
| ALVLLIPLSLLL | 0.522 ± 0.11 |
| ALVLYVSMSRGY | 0.677 ± 0.054 |
| ALVPESDLGLNF | 0.714 ± 0.026 |
| ALVSRGPCVFGW | 0.662 ± 0.045 |
| ALYLFHAPRTPP | 0.637 ± 0.014 |
| AMSLWFGFFHFV | 0.555 ± 0.018 |
| ANAPQAEHASVL | 0.699 ± 0.021 |
| ANKNNIQRTISL | 0.756 ± 0.038 |
| ANRGYRYGASRV | 0.649 ± 0.017 |
| APDLPHSTNLPR | 0.741 ± 0.024 |

| Sequence | protein stability index |
| --- | --- |
| APDPTIPYSPTP | 0.717 ± 0.028 |
| APGSPLDPLTMF | 0.6535 ± 0.0041 |
| APITPNPLYLNH | 0.697 ± 0.055 |
| APKLWLPYTCQS | 0.705 ± 0.059 |
| APLGLSFVSAVI | 0.793 ± 0.087 |
| APNPYHKPPSLR | 0.701 ± 0.11 |
| APPAPPLPAIPL | 0.675 ± 0.038 |
| APPARSSPPPRP | 0.686 ± 0.039 |
| APPHLVTYPLCP | 0.66 ± 0.067 |
| APPPAFLPPPPA | 0.729 ± 0.048 |
| APPPAPPLHPPS | 0.739 ± 0.022 |
| APPPAPSPPLAP | 0.69 ± 0.027 |
| APPPLPSLPPSP | 0.701 ± 0.017 |
| APPPPAPPPLRP | 0.724 ± 0.05 |
| APPPPARDLPPR | 0.721 ± 0.017 |
| APPPPPPDPPLP | 0.685 ± 0.011 |
| APPPRATLPRPP | 0.673 ± 0.055 |
| APPPRSPPPPPL | 0.6796 ± 0.0067 |
| APPSPPSPPGLP | 0.672 ± 0.033 |
| APPSSYSSPPPS | 0.692 ± 0.017 |
| APRPSLTPLSTP | 0.653 ± 0.09 |
| APRRVPWLLGRV | 0.578 ± 0.099 |
| APRTPATRPNHP | 0.723 ± 0.045 |
| APSGFRRKDVDL | 0.68 ± 0.034 |
| APSGPFLFIMNA | 0.663 ± 0.047 |
| APSGVGANGWGR | 0.654 ± 0.0085 |

| Sequence | protein stability index |
| --- | --- |
| APSPPSVPSPPP | 0.675 ± 0.0088 |
| APSRPFPAHPPP | 0.602 ± 0.044 |
| APSRTTERILLL | 0.714 ± 0.029 |
| APTPPPPPPPLP | 0.752 ± 0.011 |
| APTQANLRSSRS | 0.73 ± 0.022 |
| APTRVDTAGSCV | 0.676 ± 0.051 |
| APVEVYRHAEAS | 0.67 ± 0.035 |
| APVSLHVPPCSR | 0.669 ± 0.026 |
| AQLGQTCDRDGM | 0.79 ± 0.17 |
| AQPCISGLTCRY | 0.729 ± 0.0096 |
| AQPDAFAGVWGV | 0.7177 ± 0.0028 |
| AQTPNPEPLENN | 0.699 ± 0.033 |
| ARATPLWDLMPP | 0.615 ± 0.094 |
| ARCSPVPWGGGE | 0.647 ± 0.033 |
| ARGSRNHRGAGA | 0.738 ± 0.067 |
| ARIVEQTLCTKS | 0.679 ± 0.057 |
| ARLDVFTMYKDR | 0.748 ± 0.056 |
| ARLRSTPVVLPT | 0.668 ± 0.024 |
| ARLSHLQSLRFI | 0.5476 ± 0.0012 |
| ARLSNLPPSPPR | 0.678 ± 0.032 |
| ARNGVCTERSVL | 0.691 ± 0.028 |
| ARNNVRKTEQQC | 0.717 ± 0.11 |
| ARPPPPPPSVDP | 0.719 ± 0.011 |
| ARPPSPRPPPAP | 0.675 ± 0.062 |
| ARPRSGIRGSGV | 0.6848 ± 0.0048 |
